# Results taken from the RNAGym collection of RNA variant scans (doi:10.7554/elife.80360).
# B1: HDV Ribozyme (parent)
# chain: GGCCGGCAUGGUCCCAGCCUCCUCGCUGGCGCCGGCUGGGCAACAUUCCGAGGGGACCGUCCCCUCGGUAAUGGCGAAUGGGACCCA
# Variants of: B1
# Experiment: self-cleavage, relative activity (ratio to wild type); higher = more cleavage; co-transcriptional
row,Variant,self-cleavage
1,U9C G67C,0.703
2,U9C G67U,1.12
3,U9C G73U,0.383
4,U9C G74C,0.277
5,U9C G76C,1.11
6,U9C G81C,0.598
7,U9C G82A,0.266
8,U9C G82C,0.262
9,U9C U20G,0.443
10,U9C U23A,1.13
11,U9C U23G,0.831
12,U9C U37A,0.289
13,U9C U37G,0
14,U9C U46G,1.19
15,U9C U47A,1.11
16,U9C U72A,0.587
17,U9C U79A,0.831
18,U9G,1.02
19,U9G A42U,0.587
20,U9G A45C,0.712
21,U9G A56C,0.462
22,U9G A70C,0.886
23,U9G A70U,0.739
24,U9G A77G,0.767

row,Variant,self-cleavage
1,U9G A78U,0.0692
2,U9G A87G,1.15
3,U9G C13G,0.111
4,U9G C14G,1.2
5,U9G C14U,1.08
6,U9G C19A,0.208
7,U9G C24G,0.453
8,U9G C26A,1.23
9,U9G C26U,0.554
10,U9G C33U,0.87
11,U9G C36A,0.401
12,U9G C36U,0.864
13,U9G C41A,0.831
14,U9G C41U,0.997
15,U9G C44A,0.415
16,U9G C48A,1.25
17,U9G C48G,0.997
18,U9G C57U,1.03
19,U9G C58U,1.2
20,U9G C61U,1.05
21,U9G C62U,0.731
22,U9G C63G,1.17
23,U9G C84A,0.554
24,U9G C86G,1.33

row,Variant,self-cleavage
1,U9G C86U,1.42
2,U9G G10A,1.25
3,U9G G17C,0.166
4,U9G G17U,0.415
5,U9G G29A,0.123
6,U9G G29C,0
7,U9G G34A,0.344
8,U9G G35C,0.0639
9,U9G G38A,0.156
10,U9G G39A,0.475
11,U9G G40U,1.06
12,U9G G50U,1.15
13,U9G G55A,0.962
14,U9G G67A,0.88
15,U9G G68U,0.782
16,U9G G73A,0.665
17,U9G G73C,0.767
18,U9G G74A,0.751
19,U9G G74C,0.437
20,U9G G81A,0.8
21,U9G G82C,0.646
22,U9G U20C,0
23,U9G U37G,0.111
24,U9G U46C,0.748

row,Variant,self-cleavage
1,U9G U47G,1.21
2,U9G U69A,0.831
3,U9G U69G,0.767
4,U9G U72A,0.633
5,U9G U72G,0.776
6,U9G U79A,0.68
7,G10A A51U,0.923
8,G10A A71C,0.456
9,G10A A71G,0.703
10,G10A A77C,0.237
11,G10A A77U,0.169
12,G10A A78G,0.302
13,G10A A83C,0.287
14,G10A A83U,0.322
15,G10A A87C,0.764
16,G10A C13A,0.0941
17,G10A C15A,0.208
18,G10A C15U,0.332
19,G10A C19U,0.0326
20,G10A C24G,0.061
21,G10A C24U,0.338
22,G10A C26A,0.906
23,G10A C26G,1.11
24,G10A C30G,0.0777

row,Variant,self-cleavage
1,G10A C36G,0.101
2,G10A C44A,0.321
3,G10A C48U,0.895
4,G10A C49G,0.46
5,G10A C57A,0.727
6,G10A C57G,0.912
7,G10A C61U,0.84
8,G10A C63A,0.76
9,G10A C66G,0.623
10,G10A C75A,0.0898
11,G10A C75U,0.0992
12,G10A C84A,0.562
13,G10A C84G,0.591
14,G10A C86U,0.774
15,G10A G11A,0.189
16,G10A G25A,0.126
17,G10A G25C,0.0639
18,G10A G31A,0.203
19,G10A G34A,0.164
20,G10A G34U,0.257
21,G10A G39C,0.182
22,G10A G50C,0.513
23,G10A G54C,0.582
24,G10A G54U,0.84

row,Variant,self-cleavage
1,G10A G55C,0.734
2,G10A G59U,0.95
3,G10A G67C,0.599
4,G10A G67U,0.767
5,G10A G73A,0.175
6,G10A G74C,0.105
7,G10A G76A,1.04
8,G10A G76C,0.772
9,G10A G76U,0.997
10,G10A U20C,0.0234
11,G10A U27C,0.759
12,G10A U46G,0.536
13,G10A U60A,0.739
14,G10A U65G,0.767
15,G10A U69C,0.997
16,G10A U72A,0.485
17,G10C A16G,0.453
18,G10C A42G,0.151
19,G10C A42U,0.289
20,G10C A45C,0.231
21,G10C A45U,1.11
22,G10C A56G,0.532
23,G10C A56U,0.957
24,G10C A70C,0.923

row,Variant,self-cleavage
1,G10C A77G,0.458
2,G10C A78C,0.185
3,G10C A78U,0.222
4,G10C A87C,1.17
5,G10C A87G,0.887
6,G10C C14U,1.11
7,G10C C32G,0.0773
8,G10C C44U,0.582
9,G10C C49G,0.453
10,G10C C57U,1.11
11,G10C C58A,0.886
12,G10C C61G,0.808
13,G10C C63U,1.03
14,G10C C75U,0.109
15,G10C C85A,0.598
16,G10C C85U,1.07
17,G10C C86A,1.04
18,G10C G11A,0.38
19,G10C G11C,0.462
20,G10C G17A,0.804
21,G10C G17C,0.208
22,G10C G25U,0.0941
23,G10C G34A,0.166
24,G10C G34U,0.175

row,Variant,self-cleavage
1,G10C G40A,0.95
2,G10C G50C,0.923
3,G10C G53U,0.91
4,G10C G54U,0.897
5,G10C G55A,1.11
6,G10C G67A,0.712
7,G10C G67C,1.01
8,G10C G76C,0.861
9,G10C G76U,1.16
10,G10C G81A,0.131
11,G10C G82U,0.348
12,G10C U12A,0.123
13,G10C U20C,0.0739
14,G10C U20G,0.151
15,G10C U23C,0.95
16,G10C U27C,0.942
17,G10C U47C,0.332
18,G10C U60A,0.932
19,G10C U72A,0.415
20,G10C U72G,0.369
21,G10C U79C,0.132
22,G10U A16C,0.906
23,G10U A16G,0.618
24,G10U A45U,0.506

row,Variant,self-cleavage
1,G10U A56C,0.878
2,G10U A70G,0.858
3,G10U A71G,0.799
4,G10U A71U,0.639
5,G10U A77C,0.0396
6,G10U A83C,0.181
7,G10U A87G,0.704
8,G10U A87U,0.653
9,G10U C14U,0.672
10,G10U C19A,0.0946
11,G10U C22U,0.188
12,G10U C26A,0.678
13,G10U C30G,0.0989
14,G10U C32U,0.546
15,G10U C33A,0.113
16,G10U C33U,0.466
17,G10U C41A,0.892
18,G10U C41U,0.583
19,G10U C48A,0.698
20,G10U C57G,0.587
21,G10U C58G,0.793
22,G10U C61U,0.684
23,G10U C66A,0.895
24,G10U C75U,0.0678

row,Variant,self-cleavage
1,G10U C84A,0.519
2,G10U C85U,0.946
3,G10U C86A,0.712
4,G10U G17C,0.359
5,G10U G25A,0.114
6,G10U G29U,0.0475
7,G10U G31U,0.181
8,G10U G38U,0.0625
9,G10U G39A,0.199
10,G10U G39U,0.346
11,G10U G40A,0.745
12,G10U G50U,0.796
13,G10U G52C,0.639
14,G10U G54C,0.831
15,G10U G55C,0.831
16,G10U G73C,0.0831
17,G10U G73U,0.0639
18,G10U G74C,0.138
19,G10U G76A,0.652
20,G10U G76C,0.963
21,G10U G82C,0.089
22,G10U G82U,0.248
23,G10U U20C,0
24,G10U U27C,0.554

row,Variant,self-cleavage
1,G10U U37A,0.058
2,G10U U46A,0.489
3,G10U U47G,0.63
4,G10U U60C,0.767
5,G10U U60G,0.724
6,G10U U65C,0.831
7,G10U U69A,0.813
8,G10U U72A,0.277
9,G10U U79A,0.352
10,G11A A16U,0.723
11,G11A A42C,0.101
12,G11A A42G,0.0692
13,G11A A43G,0.0791
14,G11A A51C,0.665
15,G11A A56C,0.298
16,G11A A70G,0.365
17,G11A A70U,0.246
18,G11A A77C,0.0898
19,G11A A77G,0.208
20,G11A A78C,0.127
21,G11A A78U,0.111
22,G11A A87C,0.521
23,G11A C13G,0.032
24,G11A C13U,0.0297

row,Variant,self-cleavage
1,G11A C14A,0.148
2,G11A C14U,0.277
3,G11A C15A,0.108
4,G11A C22G,0.0193
5,G11A C30U,0.0645
6,G11A C32G,0.0683
7,G11A C32U,0.133
8,G11A C33U,0.271
9,G11A C36A,0.0446
10,G11A C36G,0.151
11,G11A C48A,0.506
12,G11A C48G,0.288
13,G11A C49A,0.363
14,G11A C49U,0.386
15,G11A C57A,0.45
16,G11A C57G,0.432
17,G11A C57U,0.256
18,G11A C61G,0.332
19,G11A C62G,0.437
20,G11A C75A,0
21,G11A C75G,0.141
22,G11A C85G,0.678
23,G11A G25A,0.0755
24,G11A G29C,0.123

row,Variant,self-cleavage
1,G11A G34C,0.0378
2,G11A G35U,0.149
3,G11A G38U,0
4,G11A G39A,0.0936
5,G11A G40A,0.582
6,G11A G40U,0.458
7,G11A G50A,0.366
8,G11A G50C,0.439
9,G11A G50U,0.283
10,G11A G52A,0.38
11,G11A G53C,0.372
12,G11A G54A,0.371
13,G11A G54C,0.479
14,G11A G54U,0.391
15,G11A G67A,0.0841
16,G11A G74C,0.0723
17,G11A G76C,0.796
18,G11A G80U,0.0839
19,G11A G81A,0.0639
20,G11A G81C,0.0396
21,G11A G81U,0.137
22,G11A G82A,0.253
23,G11A G82U,0.0744
24,G11A U23A,0.313

row,Variant,self-cleavage
1,G11A U23C,0.353
2,G11A U27A,0.815
3,G11A U27C,0.447
4,G11A U37A,0.0567
5,G11A U37C,0.381
6,G11A U60A,0.356
7,G11A U65A,0.396
8,G11A U69C,0.324
9,G11A U69G,0.374
10,G11A U72G,0.0923
11,G11A U79C,0.161
12,G11C A16G,0.277
13,G11C A43C,0
14,G11C A43U,0.0583
15,G11C A45G,0.249
16,G11C A51G,0.297
17,G11C A70C,0.32
18,G11C A70G,0.0692
19,G11C A71G,0.277
20,G11C A77C,0.128
21,G11C A87U,0.453
22,G11C C13A,0.142
